We go through 1 molecule from patent publication US20190119345A1 (published 2019).

This assay concerns the target T1, murine NKG2D on NK cells / splenocytes (mouse, UniProt O54709 1-232).
T1 construct: whole, on cells; also called NKG2D receptor
T1 sequence: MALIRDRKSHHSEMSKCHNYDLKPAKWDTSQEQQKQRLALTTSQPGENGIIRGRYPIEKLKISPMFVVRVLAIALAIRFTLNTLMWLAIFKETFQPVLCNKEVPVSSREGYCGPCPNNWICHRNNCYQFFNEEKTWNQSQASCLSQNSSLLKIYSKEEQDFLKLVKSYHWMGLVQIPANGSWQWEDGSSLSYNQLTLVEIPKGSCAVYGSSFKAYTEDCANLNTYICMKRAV
Description: flow cytometry, fluorescently labeled construct on bulk splenocytes at 37° C. In general terms: In flow cytometry, cells or beads pass a laser one at a time.

B1: OMCP-mutIL2 (R38A, F42K, C125S IL2-OMCP construct) (other)
chain: HKLAFNFNLEINGSDTHSTVDVYLDDSQIITFDGKDIRPTIPFMIGDEIFLPFYKNVFSEFFSLFRRVPTSTPYEDLTYFYECDYTDNKSTFDQFYLYNGEEYTVKTQEATNKNMWLTTSEFRLKKWFDGEDCIMHLRSLVRKMEDSKRNTGGTGSSGSSDYKDDDDKHHHHHHHHGSSGSSAPTSSSTKKTQLQLEHLLLDLQMILNGINNYKNPKLTAMLTKKFYMPKKATELKHLQCLEEELKPLEEVLNLAQSKNFHLRPRDLISNINVIVLELKGSETTFMCEYADETATIVEFLNRWITFSQSIISTLT
notes: also called OMCP-mutant IL2; OMCP-IL2 construct
For B1, the binding result is reported as “binds”.
